Laboratory results as given in patent US20230192903A1 (published 2023).

How the values were obtained:
[1] = biological target: T1, murine CD3 antigen (murine, UniProt P22646 22-108, limits assumed); assay: SPR (Biacore T200), murine CD3 antigen on CM5 chip, 1:1 fit
T1 construct: also called Mouse CD3ϵ
Description: After the detection was completed, data fitting was carried out on the result pattern by adopting Biacore T200 Evaluation Software in a 1:1 binding fitting mode to obtain an equilibrium dissociation constant (KD).

[2] = biological target: T2, Human CLDN18.2 (human); assay: flow cytometry, NUGC4-hCLDN18.2 cells
T2 construct: the cell line is named under assay; also called hCLDN18.2; human CLDN18.2 antigen
Description: (§1) NUGC4 and NUGC4-hCLDN18.2 cells were cultured, digested with pancreatin and centrifuged to collect cells. The cells were collected and resuspended in buffer (PBS+1% FBS) at 1×10⁴ cells/well in a 96-well plate at 100 μL per well. Then the mixture was centrifuged at 350×g for 5 min, and the supernatant was removed.

[3] = biological target: T2, Human CLDN18.2; assay: flow cytometry, NUGC4 cells (endogenous CLDN18.2)
Description: as §1

[4] = biological target: T3, human CD3 antigen (human, UniProt P07766 23-126); assay: detection method the same as in Examples 2-8 (Biacore)
T3 construct: also called Human CD3ϵ

T1 sequence (P22646 22-108 limits assumed): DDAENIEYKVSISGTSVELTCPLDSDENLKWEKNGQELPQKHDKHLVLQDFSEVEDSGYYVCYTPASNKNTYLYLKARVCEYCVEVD

B1: bispecific antibody SY1 (bispecific antibody, human IgG1, kappa)
light: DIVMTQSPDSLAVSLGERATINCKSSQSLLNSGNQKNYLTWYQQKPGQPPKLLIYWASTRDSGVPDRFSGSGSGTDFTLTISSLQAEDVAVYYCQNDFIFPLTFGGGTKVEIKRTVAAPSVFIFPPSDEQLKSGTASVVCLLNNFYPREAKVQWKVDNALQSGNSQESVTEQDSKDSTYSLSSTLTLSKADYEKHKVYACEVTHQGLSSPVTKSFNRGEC
heavy: QVQLQESGPGLVKPSETLSLTCTVSGFSLTRYGVSWIRQPPGKGLEWIGVIWGEGNTNYNPSLKSRVTISKDSSKSQVSLKLSSVTAADTAVYYCARVNFGNALDYWGQGTLVTVSSASTKGPSVFPLAPSSKSTSGGTAALGCLVKDYFPEPVTVSWNSGALTSGVHTFPAVLQSSGLYSLSSVVTVPSSSLGTQTYICNVNHKPSNTKVDKKVEPKSCDKTHTCPPCPAPPVAGPSVFLFPPKPKDTLMISRTPEVTCVVVDVSHEAPEVQFNWYVDGVEVHNAKTKPREEQFNSTFRVVSVLTVVHQDWLNGKEYKCKVSNKGLPAPIEKTISKTKGQPREPQVYTLPPCRDELTKNQVSLWCLVKGFYPSDIAVEWESNGQPENNYKTTPPVLDSDGSFFLYSKLTVDKSRWQQGNVFSCSVMHEALHNHYTQKSLSLSPGK
chain: EVQLVESGGGLVQPGKSLKLSCEASGFTFSGYGMHWVRQAPGRGLESVAYITSSSINIKYADAVKGRFTVSRDNAKNLLFLQMNILKSEDTAMYYCARFDWDKNYWGQGTMVTVSSGGGGSGGGGSGGGGSDIQMTQSPSSLPASLGDRVTINCQASQDISNYLNWYQQKPGKAPKLLIYYTNKLADGVPSRFSGSGSGRDSSFTISSLESEDIGSYYCQQYYNYPWTFGPGTKLEIKGRGRGSDKTHTCPPCPAPPVAGPSVFLFPPKPKDTLMISRTPEVTCVVVDVSHEAPEVQFNWYVDGVEVHNAKTKPREEQFNSTFRVVSVLTVVHQDWLNGKEYKCKVSNKGLPAPIEKTISKTKGQPREPQVCTLPPSRDELTKNQVSLSCAVKGFYPSDIAVEWESNGQPENNYKTTPPVLDSDGSFFLVSKLTVDKSRWQQGNVFSCSVMHEALHNHYTQKSLSLSPGK
notes: YBODY structure: anti-CLDN18.2 Fab arm (2C6.9) and single chain anti-mouse CD3 scFv (2C11)-Fc
- Kd [1]: 79.3 nM
- EC50 [2]: 125 nM
- EC50 [3]: 304 nM

B2: Bispecific antibody molecule YCS4 (bispecific antibody, human IgG1, kappa)
light 1: not shown
light 2: not shown
heavy 1: QVQLQESGPGLVKPSETLSLTCTVSGFSLTRYGVSWIRQPPGKGLEWIGVIWGEGNTNYNPSLKSRVTISKDSSKSQVSLKLSSVTAADTAVYYCARVNFGNALDYWGQGTLVTVSSASTKGPSVFPLAPSSKSTSGGTAALGCLVKDYFPEPVTVSWNSGALTSGVHTFPAVLQSSGLYSLSSVVTVPSSSLGTQTYICNVNHKPSNTKVDKKVEPKSCDKTHTCPPCPAPPVAGPSVFLFPPKPKDTLMISRTPEVTCVVVDVSHEAPEVQFNWYVDGVEVHNAKTKPREEQFNSTFRVVSVLTVVHQDWLNGKEYKCKVSNKGLPAPIEKTISKTKGQPREPQVYTLPPCRDELTKNQVSLWCLVKGFYPSDIAVEWESNGQPENNYKTTPPVLDSDGSFFLYSKLTVDKSRWQQGNVFSCSVMHEALHNHYTQKSLSLSPGK
heavy 2: EVQLVESGGGLVKPGGSLRLSCAASGFSFSNSAMSWVRQAPGKGLEWVSTISSGDSYTYYADSVKGRFTISRDNAKNSLYLQMNSLRAEDTAVYYCARQGYGNALDYWGQGTLVTVSSASTKGPSVFPLAPSSKSTSGGTAALGCLVKDYFPEPVTVSWNSGALTSGVHTFPAVLQSSGLYSLSSVVTVPSSSLGTQTYICNVNHKPSNTKVDKKVEPKSCDKTHTAPAPAPAPAPAPAPAPQVQLVESGGGVVQPGRSLRLSCAASGFTFSTYAMNWVRQAPGKGLEWVARIRSKYNNYATYYADSVKDRFTISRDDSKNTLYLQMNSLRAEDTAVYYCARHGNFGNSYVSWFAYWGQGTLVTVSSGGGGSGGGGSGGGGSQTVVTQEPSLTVSPGGTVTLTCRSSTGAVTTSNYANWVQQKPGQAPRGLIGGTNKRAPGVPARFSGSLLGGKAALTLSGVQPEDEAEYYCALWYSNLWVFGGGTKVEIKGGGGSDKTHTCPPCPAPPVAGPSVFLFPPKPKDTLMISRTPEVTCVVVDVSHEAPEVQFNWYVDGVEVHNAKTKPREEQFNSTFRVVSVLTVVHQDWLNGKEYKCKVSNKGLPAPIEKTISKTKGQPREPQVCTLPPSRDELTKNQVSLSCAVKGFYPSDIAVEWESNGQPENNYKTTPPVLDSDGSFFLVSKLTVDKSRWQQGNVFSCSVMHEALHNHYTQKSLSLSPGK
notes: CS4 with the first heavy/light chain variable regions replaced by 1E9.2; order of chains: first light, second light, second heavy, first heavy
- binding result [4]: binds

B3: bispecific antibody SCS1 (bispecific antibody, human IgG1, kappa)
light: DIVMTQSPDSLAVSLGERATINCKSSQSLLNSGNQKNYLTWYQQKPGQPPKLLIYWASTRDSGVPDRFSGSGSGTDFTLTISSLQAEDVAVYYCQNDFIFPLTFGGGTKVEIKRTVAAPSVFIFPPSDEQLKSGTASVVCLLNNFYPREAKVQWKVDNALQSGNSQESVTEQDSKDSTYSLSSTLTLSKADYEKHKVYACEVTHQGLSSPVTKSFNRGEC
heavy 1: QVQLQESGPGLVKPSETLSLTCTVSGFSLTRYGVSWIRQPPGKGLEWIGVIWGEGNTNYNPSLKSRVTISKDSSKSQVSLKLSSVTAADTAVYYCARVNFGNALDYWGQGTLVTVSSASTKGPSVFPLAPSSKSTSGGTAALGCLVKDYFPEPVTVSWNSGALTSGVHTFPAVLQSSGLYSLSSVVTVPSSSLGTQTYICNVNHKPSNTKVDKKVEPKSCDKTHTCPPCPAPPVAGPSVFLFPPKPKDTLMISRTPEVTCVVVDVSHEAPEVQFNWYVDGVEVHNAKTKPREEQFNSTFRVVSVLTVVHQDWLNGKEYKCKVSNKGLPAPIEKTISKTKGQPREPQVYTLPPCRDELTKNQVSLWCLVKGFYPSDIAVEWESNGQPENNYKTTPPVLDSDGSFFLYSKLTVDKSRWQQGNVFSCSVMHEALHNHYTQKSLSLSPGK
heavy 2: QVQLQESGPGLVKPSETLSLTCTVSGFSLTRYGVSWIRQPPGKGLEWIGVIWGEGNTNYNPSLKSRVTISKDSSKSQVSLKLSSVTAADTAVYYCARVNFGNALDYWGQGTLVTVSSASTKGPSVFPLAPSSKSTSGGTAALGCLVKDYFPEPVTVSWNSGALTSGVHTFPAVLQSSGLYSLSSVVTVPSSSLGTQTYICNVNHKPSNTKVDKKVEPKSCDKTHTAPAPAPAPAPAPAPAPEVQLVESGGGLVQPGKSLKLSCEASGFTFSGYGMHWVRQAPGRGLESVAYITSSSINIKYADAVKGRFTVSRDNAKNLLFLQMNILKSEDTAMYYCARFDWDKNYWGQGTMVTVSSGGGGSGGGGSGGGGSDIQMTQSPSSLPASLGDRVTINCQASQDISNYLNWYQQKPGKAPKLLIYYTNKLADGVPSRFSGSGSGRDSSFTISSLESEDIGSYYCQQYYNYPWTFGPGTKLEIKGGGGSDKTHTCPPCPAPPVAGPSVFLFPPKPKDTLMISRTPEVTCVVVDVSHEAPEVQFNWYVDGVEVHNAKTKPREEQFNSTFRVVSVLTVVHQDWLNGKEYKCKVSNKGLPAPIEKTISKTKGQPREPQVCTLPPSRDELTKNQVSLSCAVKGFYPSDIAVEWESNGQPENNYKTTPPVLDSDGSFFLVSKLTVDKSRWQQGNVFSCSVMHEALHNHYTQKSLSLSPGK
notes: CSBODY structure: two 2C6.9 Fab arms; second heavy chain (first heavy entry) and first heavy chain with anti-mouse CD3 scFv (2C11) between CH1 and Fc2; also called SCSI
- Kd [1]: 94.1 nM
- EC50 [2]: 25.4 nM
- EC50 [3]: 29.1 nM
